US20180291096A1 (Janssen / Centocor, published 2018)
Positions count from the first letter of the chain named.

T1: recombinant human IL-23 (hrIL-23), produced at Centocor (human, UniProt P29460 23-328)
T1 construct: p19-p40 heterodimer; also called rhIL-23; huIL-23
T1 sequence 1: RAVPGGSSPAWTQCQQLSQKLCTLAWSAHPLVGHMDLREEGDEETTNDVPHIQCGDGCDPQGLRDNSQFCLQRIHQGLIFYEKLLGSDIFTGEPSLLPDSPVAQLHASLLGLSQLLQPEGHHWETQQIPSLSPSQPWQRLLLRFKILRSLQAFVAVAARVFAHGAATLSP
T1 sequence 2: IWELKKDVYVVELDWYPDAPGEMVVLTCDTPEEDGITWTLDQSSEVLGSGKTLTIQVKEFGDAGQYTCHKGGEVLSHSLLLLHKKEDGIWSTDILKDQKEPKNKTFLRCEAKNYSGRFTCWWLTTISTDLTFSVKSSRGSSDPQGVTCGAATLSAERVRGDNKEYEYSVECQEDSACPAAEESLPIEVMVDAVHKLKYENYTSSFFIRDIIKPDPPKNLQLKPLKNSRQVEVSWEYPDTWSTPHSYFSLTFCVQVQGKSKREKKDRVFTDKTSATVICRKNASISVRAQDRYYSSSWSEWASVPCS

T2: recombinant human IL-12 (hrIL-12), produced at Centocor (human, UniProt P29459 23-219; P29460 23-328)
T2 construct: also called IL-12 CNTO
T2 sequence (looked up) 1: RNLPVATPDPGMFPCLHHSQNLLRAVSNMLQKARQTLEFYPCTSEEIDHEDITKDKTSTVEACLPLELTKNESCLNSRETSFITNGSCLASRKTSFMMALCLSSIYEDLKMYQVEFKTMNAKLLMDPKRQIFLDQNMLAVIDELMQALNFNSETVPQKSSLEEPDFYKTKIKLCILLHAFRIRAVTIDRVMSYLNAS
T2 sequence (looked up) 2: T1 sequence 2

B1: MOR04649 Fab (Fab, V domains shown)
VH: QVQLVQSGAEVKKPGESLKISCKGSGYSFSNYWIGWVRQMPGKGLEWMGIIDPSNSYTNYSPSFQGQVTISADKSISTAYLQWSSLKASDTAMYYCARWYYKPFDVWGQGTLVTVSS
VL: DIVLTQPPSVSGAPGQRVTISCTGSSSNIGSGYDVHWYQQLPGTAPKLLIYGNSKRPSGVPDRFSGSKSGTSASLAITGLQSEDEADYYCSSWTPSSVVFGGGTKLTVL
notes: Fab
B2: MOR04083 Fab (Fab, V domains shown)
VH: QVQLVQSGAEVKKPGSSVKVSCKASGGTFSNYAISWVRQAPGQGLEWMGGIIPMFGYANYAQKFQGRVTITADESTSTAYMELSSLRSEDTAVYYCARDIYAGMDVWGQGTLVTVSS
VL: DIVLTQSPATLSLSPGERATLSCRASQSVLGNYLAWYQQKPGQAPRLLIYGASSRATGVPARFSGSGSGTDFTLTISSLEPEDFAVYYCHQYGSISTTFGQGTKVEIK
notes: Fab
B3: MOR04190 Fab (Fab, V domains shown)
VH: QVQLVQSGAEVKKPGSSVKVSCKASGGTFSSNYISWVRQAPGQGLEWMGGIIPIFGHANYAQKFQGRVTITADESTSTAYMELSSLRSEDTAVYYCARSKKGMYGGWTYPLMMFDLWGQGTLVTVSS
VL: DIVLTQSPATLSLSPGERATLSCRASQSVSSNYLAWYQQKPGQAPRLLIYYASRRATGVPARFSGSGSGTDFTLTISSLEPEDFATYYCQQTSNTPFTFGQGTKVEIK
notes: Fab
B4: MOR04658 Fab (Fab, V domains shown)
VH: QVQLVESGGGLVQPGGSLRLSCAASGFTFSSFGMSWVRQAPGKGLEWVSNISSSGSSTYYADSVKGRFTISRDNSKNTLYLQMNSLRAEDTAVYYCARYWGTPYLMQFDNWGQGTLVTVSS
VL: DIALTQPASVSGSPGQSITISCTGTSSDVGGYNSVSWYQQHPGKAPKLMIYSVSSRPSGVSNRFSGSKSGNTASLTISGLQAEDEADYYCSSYDTNKPLVVFGGGTKLTVL
notes: Fab
B5: MOR04205 Fab (Fab, V domains shown)
VH: QVQLVQSGAEVKKPGESLKISCKGSGYSFTNYWISWVRQAPGKGLEWMGWIRPGDSDTRYSPSFEGQVTISADKSISTAYLQWSSLKASDTAMYYCARHYYGMDYWGQGTLVTVSS
VL: DIVLTQPPSVSGAPGQRVTISCSGSSSNIGSYYVNWYQQLPGTAPKLLIYGNTHRPSGVPDRFSGSKSGTSASLAITGLQSEDEADYYCQTYASLGPGEVFGGGTKLTVL
notes: Fab
B6: MOR04217 Fab (Fab, V domains shown)
VH: QVQLVESGGGLVQPGGSLRLSCAASGFTFSSYWITWVRQAPGKGLEWVSYISSSGSSTYYADSVKGRFTISRDNSKNTLYLQMNSLRAEDTAVYYCARGTFWSFGNYFANWGQGTLVTVSS
VL: DIVLTQSPATLSLSPGERATLSCRASQSIFYNLAWYQQKPGQAPRLLIYGASNRATGVPARFSGSGSGTDFTLTISSLEPEDFATYYCQQYSSEPVTFGQGTKVEIK
notes: Fab
B7: MOR05049 Fab (Fab, V domains shown)
VH: QVQLVESGGGLVQPGGSLRLSCAASGFTFSSFGMSWVRQAPGKGLEWVSGIEHKYLSYTTHYAASVKGRFTISRDNSKNTLYLQMNSLRAEDTAVYYCARYWGTPYLMQFDNWGQGTLVTVSS
VL: B4 VL
notes: Fab
B8: MOR05061 Fab (Fab, V domains shown)
VH: B4 VH
VL: B4 VL with D94Y, T95F, N96Y, K97L, P98Q, L99R, V100I
notes: Fab
B9: MOR05062 Fab (Fab, V domains shown)
VH: B4 VH
VL: B4 VL with S91Q, S92T, D94Y, T95F, N96S, K97Y, P98S, L99G, V100P
notes: Fab
B10: MOR05063 Fab (Fab, V domains shown)
VH: B4 VH
VL: B4 VL with S91G, Y93W, T95P, N96I, K97F, P98S, L99Y, V100E
notes: Fab
B11: MOR05060 Fab (Fab, V domains shown)
VH: B4 VH
VL: B4 VL with S91G, T95V, N96Y, K97G, P98R, L99F, V100Y
notes: Fab
B12: MOR05042 Fab (Fab, V domains shown)
VH: B1 VH with D52S, S54T, N55G, Y57S, N59W
VL: B1 VL
notes: Fab
B13: MOR05045 Fab (Fab, V domains shown)
VH: B1 VH with D52S, S54T, N55G, Y57A, N59W
VL: B1 VL
notes: Fab
B14: MOR05038 Fab (Fab, V domains shown)
VH: QVQLVQSGAEVKKPGSSVKVSCKASGGTFSSNYISWVRQAPGQGLEWMGINAHLGGTWYAQKFQGRVTITADESTSTAYMELSSLRSEDTAVYYCARSKKGMYGGWTYPLMMFDLWGQGTLVTVSS
VL: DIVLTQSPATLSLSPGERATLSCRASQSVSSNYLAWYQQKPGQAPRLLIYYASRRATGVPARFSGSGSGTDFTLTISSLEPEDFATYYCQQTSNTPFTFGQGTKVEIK
notes: Fab
B15: MOR05028 Fab (Fab, V domains shown)
VH: B2 VH with M54V, Y57F, A58T, N59H
VL: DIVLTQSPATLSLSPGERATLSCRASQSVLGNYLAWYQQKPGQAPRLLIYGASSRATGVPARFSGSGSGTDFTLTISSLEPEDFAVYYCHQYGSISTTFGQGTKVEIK
notes: Fab

The binders below were run against T1, recombinant human IL-23 (hrIL-23), … (assay: hrIL-23/hIL-23R competition assay).

Compared with B1, B2 is 23-fold higher in IC50: 0.2 nM for the first, 4.6 nM for the second.

First: B3
Second: B4
The IC50 of the first is 6.9-fold higher: 4.8 nM for the first, 0.7 nM for the second.

Compared with B5, B6 is 2.4-fold lower in IC50: 38 nM for the first, 16 nM for the second. The second is the more potent here.

What follows are binders tested against T1, recombinant human IL-23 (hrIL-23), … (assay: IL-23/IL-23R competition assay).

First: B7
Second: B4
The IC50 of the first is 36-fold lower: 0.39 nM for the first, 14 nM for the second.

B8 and B9 are within 1.5-fold of each other in IC50: 1.25 nM for the first, 1.34 nM for the second.

Compared with B10, B11 is 3.1-fold higher in IC50: 0.32 nM for the first, 1 nM for the second. The first is the more potent here.

These binders were tested against T2, recombinant human IL-12 (hrIL-12), … (assay: not told).

B12: no binding.
B13: no binding.
B14: no binding.
B15: no binding.
B7: no binding.

The binders below were run against T1, recombinant human IL-23 (hrIL-23), … (assay: Biacore, Fab capture).

Compared with B1, B2 is 2.3-fold higher in Kd: 7 nM for the first, 16 nM for the second. The first binds more tightly here.

B3 and B4 are the same in Kd: 11 nM for the first, 11 nM for the second.

Going from B5 to B6, the Kd falls from 140 nM to 41 nM (3.4-fold). The second binds more tightly here.

What follows are binders tested against T1, recombinant human IL-23 (hrIL-23), … (assay: SET).

First: B7
Second: B4
The Kd of the first is 610-fold lower: 0.007 nM for the first, 4.3 nM for the second.

Compared with B8, B9 is 1.7-fold higher in Kd: 0.058 nM for the first, 0.098 nM for the second. The first binds more tightly here.

Going from B10 to B11, the Kd rises from 0.069 nM to 0.142 nM (2.1-fold). The first binds more tightly here.

Target: T1, recombinant human IL-23 (hrIL-23), …
Assay: IL-23/IL-23R competition assay
Remark: another data set of the same source

B12 and B13 are within 1.5-fold of each other in IC50: 0.06 nM for the first, 0.05 nM for the second.

Compared with B1, B14 is 7.1-fold lower in IC50: 1.2 nM for the first, 0.17 nM for the second.

First: B2
Second: B15
The IC50 of the first is 17-fold higher: 7.1 nM for the first, 0.43 nM for the second. The second is the more potent here.

In the case of B3, the IC50 is reported as 1.3 nM.

Target: T1, recombinant human IL-23 (hrIL-23), …
Assay: SET
Remark: another data set of the same source

First: B12
Second: B13
The Kd of the first is 2.2-fold lower: 0.004 nM for the first, 0.009 nM for the second. The first binds more tightly here.

First: B1
Second: B14
The Kd of the first is 29-fold higher: 1.1 nM for the first, 0.038 nM for the second. The second binds more tightly here.

Going from B2 to B15, the Kd falls from 1.6 nM to 0.133 nM (12-fold).

B3 showed a Kd of 4.4 nM.
